Data on 3 molecules can be found in paper PMC4359367, “DNA binding polarity, dimerization, and ATPase ring remodeling in the CMG helicase of the eukaryotic replisome” (eLife, 2014).

To fix the notation:
T1: Mcm5 (Drosophila melanogaster, UniProt Q9VGW6 1-733)
T1 construct: Mcm5, Drosophila melanogaster, subunit of Mcm2-7; source: Hi5 cells, co-infection with baculoviruses; purified as part of the CMG (anti-FLAG agarose, Mono S, Mono Q) and in whole cell lysate
T1 sequence (looked up): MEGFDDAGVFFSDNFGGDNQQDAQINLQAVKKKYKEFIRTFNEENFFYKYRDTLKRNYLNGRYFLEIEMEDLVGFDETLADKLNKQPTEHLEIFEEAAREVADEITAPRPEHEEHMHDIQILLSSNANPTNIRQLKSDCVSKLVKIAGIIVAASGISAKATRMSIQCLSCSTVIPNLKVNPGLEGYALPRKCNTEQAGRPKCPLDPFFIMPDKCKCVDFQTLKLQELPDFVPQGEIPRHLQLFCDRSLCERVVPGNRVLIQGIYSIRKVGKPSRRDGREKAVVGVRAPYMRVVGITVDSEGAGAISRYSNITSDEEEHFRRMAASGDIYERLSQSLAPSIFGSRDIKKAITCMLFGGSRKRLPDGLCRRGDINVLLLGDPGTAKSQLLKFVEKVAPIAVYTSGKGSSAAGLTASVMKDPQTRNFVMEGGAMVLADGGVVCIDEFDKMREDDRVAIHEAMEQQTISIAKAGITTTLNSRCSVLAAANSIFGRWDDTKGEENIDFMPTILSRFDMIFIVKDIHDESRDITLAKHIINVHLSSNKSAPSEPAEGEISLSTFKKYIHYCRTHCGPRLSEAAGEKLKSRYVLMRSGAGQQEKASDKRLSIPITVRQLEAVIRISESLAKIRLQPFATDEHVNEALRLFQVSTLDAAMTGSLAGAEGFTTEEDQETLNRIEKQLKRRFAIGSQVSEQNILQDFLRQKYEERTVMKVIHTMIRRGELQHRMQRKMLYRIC

T2: Mcm2 (Drosophila melanogaster, UniProt P49735 1-887)
T2 construct: Mcm2, Drosophila melanogaster, subunit of Mcm2-7; source: Hi5 cells, co-infection with baculoviruses; purified as part of the CMG (anti-FLAG agarose, Mono S, Mono Q) and in whole cell lysate
T2 sequence (looked up): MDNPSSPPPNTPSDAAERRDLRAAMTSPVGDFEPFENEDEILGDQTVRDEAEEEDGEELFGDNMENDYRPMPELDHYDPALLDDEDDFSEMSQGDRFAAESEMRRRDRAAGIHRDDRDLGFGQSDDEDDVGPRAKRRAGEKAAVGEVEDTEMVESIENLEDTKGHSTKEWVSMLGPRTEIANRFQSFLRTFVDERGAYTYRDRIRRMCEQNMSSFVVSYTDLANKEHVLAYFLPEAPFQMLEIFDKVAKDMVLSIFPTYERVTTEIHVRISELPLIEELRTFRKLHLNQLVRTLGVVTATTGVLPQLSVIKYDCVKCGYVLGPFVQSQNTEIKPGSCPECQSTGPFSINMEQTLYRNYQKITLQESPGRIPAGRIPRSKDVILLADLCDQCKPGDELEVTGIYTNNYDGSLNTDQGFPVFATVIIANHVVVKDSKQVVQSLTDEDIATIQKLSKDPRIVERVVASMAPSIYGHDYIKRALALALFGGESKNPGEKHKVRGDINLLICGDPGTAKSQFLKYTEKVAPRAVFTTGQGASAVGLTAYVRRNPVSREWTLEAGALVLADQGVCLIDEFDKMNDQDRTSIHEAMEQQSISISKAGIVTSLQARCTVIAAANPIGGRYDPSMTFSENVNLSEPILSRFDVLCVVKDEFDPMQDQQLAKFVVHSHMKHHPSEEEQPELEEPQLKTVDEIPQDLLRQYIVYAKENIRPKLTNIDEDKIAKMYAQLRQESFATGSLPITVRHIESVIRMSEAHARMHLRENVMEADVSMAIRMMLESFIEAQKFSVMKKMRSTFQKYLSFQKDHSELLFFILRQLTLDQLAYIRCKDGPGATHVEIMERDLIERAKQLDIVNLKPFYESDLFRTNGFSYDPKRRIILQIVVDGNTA

B1: Cdc45 (natural protein, Drosophila melanogaster, UniProt O96989 1-575, looked up)
chain: MFVQDLRNDFYRQLVGKRILIVVNYDIDAICASRILQALFKYDHMLYTVVPIMGVTGLKRAYGEHQGDVKYVVLVNCGGCVDIVELLQPSDDVTFFICDSHRPLDVCNIYSDRQVCILGDASLEENIPAFETIFYDSEGEDEDEDESSDTEQQHDDSGAGESDQEDQAPRSRKLSRLERHEQRILKQRARRQWESERDRIMFEYTQFSYYGRSAALMVFELAWKLSKDNMDLLWWAIVGITEQLLLGKIESGAYTLELEQIQSHVSRLTNKTNDQNTMSASKITFENDLHLVLYRHWPVTESMRYSRYSSCQLKLWTLRGEKRLHELLLEMGLPLVHARQTYGAMDLVLRKEFFSMVERLAEKYDIADIVYGTFTLSYGYRSRYAAADYVYALLAIMESVKKHKTPEDCFLEASDALSRQHKQLLSAGIDQAKLLHAAVFRQVQSSLEARQVHSAGSFFYYVLQEEHAFFSYPYALGLLARFLLRGHVATSRARQASDLPLIASCPLNASEGMCLLVGIVPVREDSPRNFFGKAFEQAAQKSGVALLQDFFEPAVVQLRQSDLTRFLDSLTVLLA
notes: Cdc45, Drosophila melanogaster; also called DmCdc45; source: Hi5 cells, co-infection with baculoviruses; purified as part of the CMG (anti-FLAG agarose, Mono S, Mono Q) and in whole cell lysate
B2: Psf1 (natural protein, Drosophila melanogaster, UniProt Q9W0I7 1-202, looked up)
chain: MSRQTKMFGEKAFDLLKELERSSQTIPAFDDDGVRQVLEEIKAIFEENVAQASSYNASGDRSLWPLLNFRHAALQRNKRCLLAYLYERCRRIKALRWEFGPIIPGDIKQALCEPEVTFFNNYSKSLAAYMCSAGYNQGLPIDLTNNLRPPKSLYIEVRCMEDYGKFELDDGEVIHLKKNSQHYLPRAQVESLVRQGILHHIA
notes: Psf1, Drosophila melanogaster, subunit of GINS; the printed B-domain region 185-202 ends at the C-terminus; source: Hi5 cells, co-infection with baculoviruses; purified as part of the CMG (anti-FLAG agarose, Mono S, Mono Q) and in whole cell lysate

Assay [1] has as its target Cdc45/Mcm2-7/GINS (CMG) helicase (Drosophila melanogaster) (UniProt P49735). The experiment in a line: negative-stain EM, reference-free 2D class averages; purified CMG with 3'-tailed DNA and ATPγS; dimeric particles compared with 2D projections of double-hexamer models in six registers.
The target of assay [2] is T1, Mcm5. Briefly: negative-stain EM single-particle reconstruction; purified CMG mixed with a 20 bp duplex DNA bearing a 3' dT40 tail and 0.1 mM ATPγS, Superose 6 peak fraction, uranyl formate stain; 18 Å map; crystal structures and homology models docked. To be noted: both partners purified.
The target in assay [3] is T2, Mcm2. Described as above. Conditions: both partners purified.
Assay [4] has as its target B1. The assay is described as above. Conditions: both partners purified.

Take “Cdc45/Mcm2-7/GINS (CMG) helicase (from UniProt P49735 1-887; Q9XYU1 1-819; Q26454 1-866; Q9VGW6 1-733; Q9V461 1-817; Q9XYU0 1-720; Q9W0I7 1-202; Q9VQY9 1-203; Q9VBI1 1-228; O96989 1-575) (complex)”: in assay [1], the percent of CMG particles in dimers worked out at 5% and the stoichiometry N was 2.

Consider B1, for which the binding result in assay [2] and in assay [3] was “binds” each time.

With B2, in assay [4], the binding result is on record as “binds”.

Usually stoichiometry N stands for a count of units in the complex or per binding partner.
